# Source: patent publication US6022856
# Target: type-2 neurotensin receptor of rats (rNT-R2) (rat)
# Assay: displacement of 0.2 nM 125I-neurotensin from COS-3 cells transfected with rNT-R2
substance,measurement,value
neuromedin N (from UniProt P30990) (peptide),IC50,5.1 nM
